From the nanobody polyreactivity screen of Harvey et al. (2022)

Assay: yeast display, Sf9 membrane polyspecificity reagent, FACS + sequencing; frameworks hold sequencing errors
Method in brief: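 Galactose-induced (36–48 hours) yeast carrying a synthetic nanobody display library were exposed to 10% biotinylated, detergent-solubilized Sf9 membrane reagent at 4 °C for 1 hour. FACS followed streptavidin microbead enrichment, using low and high (top ~1%) gates for expression (anti-HA) and reagent binding (streptavidin). Colony PCR, MiSeq 2 × 250 sequencing and CDR-length filtering followed. Labels for polyreactivity reflect the gate of origin.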

Sequence | polyreactivity (PSR sort gate)
QVQLVESGGGLVQAGGSLRLSCAASGRIFWINAMGWYRQAPGKERELVATISSGSTSYADSVKGRFTISRDNAKNTVYLQMNSLKPEDTAVYYCAADFVFRWYSYTGRWYSSYDYWGQGTQVTVSS | low polyreactivity
QVQLVESGGGLVQAGGSLRLSCAASGRIFWPNTMGWYRQAPGKERELVATITSTGTRTYYADSVKGRFTISRDNAKNTVYLQMNSLNPEDTAVYYCNARGYYRPDRPTRRNRFDYWGQGTQVTVSS | high polyreactivity
QVQLVESGGGLVQAGGSLRLSCAASGRIFWQYAMGWYRQAPGKERELVAAISRSGGSTYYADSVKGRFTISRDNAKNTVYLQMKCLTPEDTAVYYCAARKASGVPGSAGRPEYYYWGQGTQVTVSS | high polyreactivity
QVQLVESGGGLVQAGGSLRLSCAASGRIFWRYAMGWYRQAPGQERELVAAISRGGGRTYYADSVKGRFTSSRDNAKNTVYLQMNSLKPEDTAVYYCAARSTQGRFENWGQGTQVTVSS | high polyreactivity
QVQLVESGGGLVQAGGSLRLSCAASGRIFWTNAMGWYRQAPGKERELVAGITWRGGSTYYADSVKGRFTISRDNAKNTVYLQMNSLKPEDTAVYYCATRQGWYSGFDYWGQGTQVTVSS | high polyreactivity
QVQLVESGGGLVQAGGSLRLSCAASGRIFWVYAMGWYRQAPGKERELVAAISSTGDGTYYADSVKGRFTISRDNAKNTVYLQMNSLKPVDTAVYYCAADFRVARSPLSGGSDYWGQGTQVTVSS | low polyreactivity
QVQLVESGGGLVQAGGSLRLSCAASGRIFWVYAMGWYRQAPGKERELVAAISTRGGSTYYADSVKGRFTISRDNAKNRVYLQKNRLKPDDTAVYYCAADYDDKYDYWGQGTQVTVSS | low polyreactivity
QVQLVESGGGLVQAGGSLRLSCAASGRIFWWNTMGWYRQAPGKERELVASITGSGGRTSYADSVKGRFTISRDNAKNTVYLQMNSLKPEDTAVYYCAKEHVSKWSYPYYYWGQGTQVTVSS | high polyreactivity
QVQLVESGGGLVQAGGSLRLSCAASGRIFWYYAMGWYRQAPGKERELVAAITRSGASTYYADSVKGRFTISRDNAKNTVYLQMNSLKPEDTAVYYCAARGRWNVPARRDYWGQGTQVTVSS | high polyreactivity
QVQLVESGGGLVQAGGSLRLSCAASGRIFWYYAMGWYRQAPGKEWELVARISSSGGSTYYADSVKGRFTISRDNAKNTVYLQMNSLKPEDTAVYYCAKERYSGSSRYPMDYWGQGTQVTVSS | high polyreactivity
QVQLVESGGGLVQAGGSLRLSCAASGRIFWYYDMGWYRPAPGKERELVAAISQRGGSTYYADSVKGRFTISRDNAKNTVYLQMNSLKPEDTAVYYCAAYSRYLGPTHHIKYDYWGQGTQVTVSS | high polyreactivity
QVQLVESGGGLVQAGGSLRLSCAASGRIFYANAMGWYRQAPGKEWEFVASITYGGGSTYYADSVKGRFTISRDNAKNTVYLQMNSLKPEDTAVYYCAAGYYAQYEDYIRYDYWGQGTQVTVSS | low polyreactivity
QVQLVESGGGLVQAGGSLRLSCAASGRIFYAYALGWYRQATGIERELVAAISRRGGSTYYADSVKGRFTISRDNAKNTVYLQMNSLKPEDTAVYYCAADRQFSYVYYIDPTAYEYCGQGTQVTVSS | high polyreactivity
QVQLVESGGGLVQAGGSLRLSCAASGRIFYAYAMGWYRQAPGKEREFVAAISWGGGSTNYADSVKGRFTISRDNAKNTVYLQMNSLKPEDTAVYYCATGFYYYLTKTIPYEYEYWGQGTQVTVSS | low polyreactivity
QVQLVESGGGLVQAGGSLRLSCAASGRIFYAYAMGWYRQAPGKERELVAAISYIAGITYYADSVKGRFTISRDNAKNTVYLQMNSLIPEDTAVYYCAADDMVTGPLDFWGQGTQVTVSS | low polyreactivity
QVQLVESGGGLVQAGGSLRLSCAASGRIFYAYAMGWYRQAPGKERELVAGITYSGSSTYYADSVKGRFTISRDNAKNTVYLQMNSLKPEDTAVYYCAADLTRVLRYNYWGQGTQVSVSS | low polyreactivity
QVQLVESGGGLVQAGGSLRLSCAASGRIFYAYAMGWYRQAPGKEREMVAAISKGGGSTYYADSVKGRFTISRDNAKNSVYLQMNSLKPEDTAVYYCNAQQYPYHIKYDYWGQGSQVTVSS | low polyreactivity
QVQLVESGGGLVQAGGSLRLSCAASGRIFYAYAMGWYRQEPGKERELVASISGSGGSTYYADSVKGRFTISRDNAKNTVYLQMNRLKPEDTAVYYCAKRYPFYSSGLSTYNYWGQGTQVTVSS | high polyreactivity
QVQLVESGGGLVQAGGSLRLSCAASGRIFYDNVMGWYRQAPGKERDLVAAISRSGGDTYYADSVKVRFTISRDNAKNTVYLQMNSLKPEDTAVYYCAADIYAFSGLYYYWGQGTQVTVSS | high polyreactivity
QVQLVESGGGLVQAGGSLRLSCAASGRIFYDYAMGGSRQAPGKERELVAAISKGGGSTYYADSVKGRFTISRDNAKNTVYLQMYSLKPEDTAVYYCAASSSLTTDTLYDYWGQGTQVTVSS | low polyreactivity
QVQLVESGGGLVQAGGSLRLSCAASGRIFYDYAMGWYRQAPGKEWELVAAISGSGGSTYYADSVKGRFTISRDNAKNTVYLQMNSLKPEDTAVYYCNRYTTRYYPGGDYWGQGTQVTVSS | high polyreactivity

Sequence | polyreactivity (PSR sort gate)
QVQLVESGGGLVQAGGSLRLSCAASGRIFYDYAMGWYRQAPGKQREFVAAIRWRGGSTYYADSVKGRFTISRDNAMNTVYLQMNSLKPEDTAVYYCATKSYYKFGYWGQGSQVTVSS | high polyreactivity
QVQLVESGGGLVQAGGSLRLSCAASGRIFYDYTMGWYRQEPGKERELVAAINSGGGSTYYADSVKGRFTISRDNAKNTVYLQMNSLKPEVSAVYYCNADGQWNIWEYDYWGQGTQVTVSS | high polyreactivity
QVQLVESGGGLVQAGGSLRLSCAASGRIFYEYAMGWYRQAPGKERELVAISTSGGNTYYADSVKGRFTISRDNAKNTVYLQMNSLKPEVTAVYYCAARLQYYPYYYWGQGTQVTVSS | high polyreactivity
QVQLVESGGGLVQAGGSLRLSCAASGRIFYFNAMGWYRQAPGKEWELVAVINSSGSTDYADSVKGRFTISRDNAKNTVYLQMNSLKPEDTAVYYCAAEVTPSGYGYWGQGTQVTVSS | low polyreactivity
QVQLVESGGGLVQAGGSLRLSCAASGRIFYFNAMGWYRQAPGQERELVADISSGGRTNYADSVKGRFTISRDNAKNTVYLQMNSLKPEDTAVYYCNAEPYTSSGGYRGYDFDSWGQGTQVTVSS | low polyreactivity
QVQLVESGGGLVQAGGSLRLSCAASGRIFYFNSMGWYRQAPGKEREFVAAISGSGGDTYYADSVKGRFTISRDIAKNTVYLQMNSLKPEDTAVYYCAAEVYTWGQGTQVTVSS | low polyreactivity
QVQLVESGGGLVQAGGSLRLSCAASGRIFYFNVMGWYRQAPGKVRELVAAIRWSVGTTYYADSVKGRFTISRDNAKNTVYLQMNSLKPEDTAVYYCAARRSFPLGTARMYYWGQGTQVTVSS | high polyreactivity
QVQLVESGGGLVQAGGSLRLSCAASGRIFYFYALGWYRQAPGKERELVAAIDSGGSTYYADSVKGRFTISRDNAKNTVYLQMNSLKPEDTAVYYCNADGFYSWLYDYWGQGTQVTVSS | low polyreactivity
QVQLVESGGGLVQAGGSLRLSCAASGRIFYFYAMGGYRQAPGKERELVAAISRRGGTTNYADSVKGRFTISRDNAKNTVYLQMNSLKPEDTAVYYCAADYQSVGGAEYDYWGQGTQVTVSS | high polyreactivity
QVQLVESGGGLVQAGGSLRLSCAASGRIFYFYAMGLYTQAPGKERELVAVISYGGDRTSYADSVKGRFTISRDNAKNTVYLQMNSLKPEDSAVYYCAARPFYRGYYYWGQGTQVTVSS | high polyreactivity
QVQLVESGGGLVQAGGSLRLSCAASGRIFYFYAMGWSRQAPGKERELVAAITGSAGGTYYADSVKGRFTISRDTAKNTVYLQMNSLKPEDTAVYYCAAKYYGNKRDLYYWGQGTQVTVSS | low polyreactivity
QVQLVESGGGLVQAGGSLRLSCAASGRIFYFYAMGWYRQAPGKERELVAAISTSGGSTYYADSVKGRFTISRDNAKNTVYLQMNSLKPEDTAVYYCAARFRYYGSEYDYWGQGTQVTVAS | low polyreactivity
QVQLVESGGGLVQAGGSLRLSCAASGRIFYFYAMGWYRQAPGKERELVASISSGGITNYADSVKGRFTISRDNAKNTVYLQMNSLKPEDTAVYYCAADYGYYSRLYYWGQGTQVTVSS | low polyreactivity
QVQLVESGGGLVQAGGSLRLSCAASGRIFYFYVMGWYRQAPGKEREFVAAISQSGGSTYYADSVKGRFTISRDNAKNTVYLQMNSLKPEDTAVYYCAADLKAWGRYYYWGQGTQVTVSS | low polyreactivity
QVQLVESGGGLVQAGGSLRLSCAASGRIFYGNAMGWYRQAPGKERELVAAIRRSGGSTYYAESVKGRVTISRDNAKNTVYLQMNSLKPEDTAVYYRNADAFNKISYVWYDYWGQGPQVTVSS | low polyreactivity
QVQLVESGGGLVQAGGSLRLSCAASGRIFYGNAMGWYRQAPGKERELVAAISSGTSTNYADSVKGRFTISRDNAKNTVYLEMNRLKPEDTAVYDCAAGSYSRYLYSLYFDFDYWGQGTQVTVSS | low polyreactivity
QVQLVESGGGLVQAGGSLRLSCAASGRIFYGYAMGWYRQAPGKERDLVAGISYRGARTYYADSVKGRFTISRDNAKNTVYLQMTSLKPEDTAVYYCNAVPYYPFAFGALDYWGQGTQVTVSS | high polyreactivity
QVQLVESGGGLVQAGGSLRLSCAASGRIFYGYAMGWYRQAPGKERELVAAIRTSGGSTYYADSVKGRFTISRDNAKNTVYLQMNSLKPEDTAVYYCNAGIVPRNRYYTPYNYWGQGTQVTVSS | low polyreactivity
QVQLVESGGGLVQAGGSLRLSCAASGRIFYGYAMGWYRQAPGKERELVAAITYSGGITYYADSVKGRFTISRDNAKNTVYLQMNSLKPEDTAVYYCATSKSSVTGPDLDYWGQGTQVTVSS | high polyreactivity
QVQLVESGGGLVQAGGSLRLSCAASGRIFYGYSMGWSRQATGKEWELVAAISSSGGSTYYADSVKGRFTISRDNAKNTVSLQRNSVKPEDTAVYYCNAQRYRPGYWYDYWGQGTQVTVSS | high polyreactivity
